Consider one molecule from US20160311918A1, “Anti-Ron Monoclonal Antibodies as a Cytotoxic Drug Delivery System for Targeted Cancer Therapy” (TEXAS TECH UNIVERSITY SYSTEM, priority 2013, published 2016).

“And” between values parts separate entries of the source, which are not always exact repeats. Equal entries are not always repeated.

Data set [1] is described as follows: Stability of Zt/g4-DM1 at 37° C. by HIC (DAR). Format: physicochemical. The source says: FIGS. 1A to 1C show the generation and characterization of anti-RON ADC Zt/g4-DM1. FIG. 1A: Schematic representation of Zt/g4-DM1 structure: Zt/g4 is a mouse mAb specific to the RON sema domain (18). DM1 was conjugated to Zt/g4 by non-reducible thioether linkage (SMCC) through lysine residues in the antibody molecule. FIG. 1B: HIC analysis of the number of DM1 conjugated to Zt/g4: Individual Zt/g4-DM1s with different numbers of DM1 (0 to 8) are marked as P0 to P8. FIG. 1C: Stability of Zt/g4-DM1. Zt/g4-DM1 was kept at 37° C. for 30 days. Samples analyzed at different time-points with the average DARs were shown;
Analysis of Zt/g4-DM1 conjugation and its stability: The conjugation of DM1 to Zt/g4 was verified by hydrophobic interaction chromatography (HIC) using a Varian Prostar 210 Quaternary HPLC system coupled with a TSK butyl-NPR 4.6×3.5 column (Tosoh Biosciences (Prussia, Pa.) (31). The average DARs were calculated from the integrated areas of the DAR species. This method also was used to determine the stability of Zt/g4-DM1 at 37° C.
The stability of Zt/g4-DM1 was determined by incubating the conjugates in vitro at 37° C. for 30 days. DAR changes were measured by HIC from different time-points.

Data set [2] relates to HCT116-luc2 xenograft tumor. The data set can be described thus: HCT116-luc2 mouse xenograft tumor model. As to conditions: single dose 20 mg/kg. The class given is in vivo. The method, then:
(§1) Athymic nude mice (five mice per group) were subcutaneously inoculated with 5×10^6 HCT116, HT29, and SW620 cells followed by injection of 20 mg/kg Zt/g4-DM1 through tail vein. FIG. 4A: Tumor growth from HT29-luc2 or HCT116-luc2 cells was determined by measuring average photon intensity (left panel). SW620-derived tumor growth was monitored by measuring tumor volume (FIG. 4B) (right panel). FIG. 4C: Tumor images with photon emission or caliper measurement at day 16 are presented. The scale from minimal to maximal is set at 300 to 35,000 photons per second. The percentages of inhibition were calculated from the average photon emission (for HT29 and HCT116 cells) or tumor volume (for SW620 cells). […] The percentages of inhibition were calculated by a formula: (average tumor weight from Zt/g4-DM1 treated group/average tumor weight from control mice)×100%;
(§2) Mouse xenograft CRC model and anti-RON ADC treatment: All mice studies were approved by the institutional animal care committee. […] Bioluminescence from individual tumors was measured every four days using Caliper IVIS image system (PerkinElmer). Tumor volumes from SW620-derived tumors were measured according to a formula: V=pi/6×1.58×(length×width)^3/2 (18,33). […]
(§3) The inventors first determined the efficacy of a single dose of Zt/g4-DM1 at 20 mg/kg body weight on tumors derived from HCT116, HT29, and SW620 cells. […]

Data set [3] has as its system SW620-derived tumors. The data set can be described thus: SW620 mouse xenograft tumor model. Format: in vivo. As to conditions: single dose 20 mg/kg. As to the method: as §1, §2, §3
Data set [4] can be described thus: Acute toxicity in Balb/c mice. Format: in vivo, mouse. As to the method: FIGS. 6A to 6C show the toxicity of Zt/g4-DM1 in vivo. Body weight was measured every four days during the period of Zt/g4-DM1 treatment. FIG. 6A: Effect of multiple doses of Zt/g4-DM1 on mouse body weight was determined by administration of Zt/g4-DM1 at 1, 3, 7, 10, 15 mg/kg every four day with a total of 5 injections. Mice were weighed and monitored for a total of 31 days. FIG. 6B: Effect of a single dose of Zt/g4 at 20 mg/kg on mouse body weight was determined using mice bearing HT29, HCT116, or SW620-derived tumors. Body weight was monitored up to 28 days. FIG. 6C: Effect of high doses of Zt/G4-DM1 on mouse body weight was analyzed by tail vein injection at 20, 40 and 60 mg/kg to Balb/c mice. Mice were euthanized at day 21. In all cases, the average body weight of mice before Zt/g4-DM1 injection was 19.8±3.6 grams (5 mice per group) and set as 100%;
In vivo toxicity studies: Acute toxicity with maximum tolerated dose was determined in Balb/C mice (four mice per dose) by a single tail vein injection of Zt/g4-DM1 at 20, 40, and 60 mg/kg body weight. Toxicity associated with different therapeutic doses was evaluated in athymic nude mice bearing HT29 tumor xenograft (five mice per dose). […] Toxicity was assessed by observing mouse behavior, weight loss, and survival.
Toxic effect of Zt/g4-DM1 on mice. Three studies using two different types of mice were performed to study Zt/g4-DM1 on animal behavior and body weight. The first study addressed the impact of multi-doses of Zt/g4-DM1. Athymic nude mice were injected five times with 1, 3, […], 7, 10, 15 mg/kg of Zt/g4-DM1 and monitored every four days for a total period of 31 days. […] The second study observed the effect of a single dose of Zt/g4-DM1 at 20 mg/kg in nude mice bearing tumors derived from HT29, HCT116, and SW620 cells. […] The third study involved a single-dose injection of Zt/g4-DM1 at 20, 40, and 60 mg/kg in Balb/c mice monitored for 24 days (FIG. 6C). […] Also, a moderate reduction of about 6% body weight was observed within the first four days after 60 mg/kg Zt/g4-DM1 injection. Although the average body weight from this group of mice slowly recovered during the observation period, the overall average remained lower than that of control mice with a 19% difference compared to that of control mice at day 24. Thus, Zt/g4-DM1 at the multiple-dose regimen appeared to be well tolerated.

B1: Zt/g4-DM1: anti-RON mouse mAb Zt/g4 conjugated to maytansinoid DM1 via non-reducible thioether linkage (SMCC), DAR about 4:1 (conjugate)
VH: EVQLQQSGAELVKPGASVKLSCTTSGFNIIDTYIHWVNQKPDQGLEWIGRIDPADGNRKSDPKFQVKATITVDTSSNTAYLQLSSLTSGDTAVYYCARGYGNLNAMDSWGQGTSVTVSS
VL: DIQMNQSPSSLSASLGDTITITCHASQNINVWLNWYQQKPGNIPKLLIYKASNLHTGVPSRFSGSGSGTGFTLTISSLQPEDIATYYCQQGQSYPLTFGGGTKLEIK
Take B1: in data set [1], the “time stable at 37° C.” value is “up to 30 days”. In addition, the “peak 5 share of conjugates at day 30” value in data set [1] (25.39% at day 0) amounted to 20.06%. Besides, the “peak 4 share of conjugates at day 30” value in data set [1] (39.05% at day 0) stood at 32.72%. The “reduction in DAR after 30 days” value in data set [1] (day 30 vs day 0) is 6.4% and 6.5%. Also, in data set [1] (in vitro, HIC), the “average DAR at day 30” value worked out at 3.484. In addition, the “inhibition by average bioluminescence intensity” value in data set [2] (day 16) is reported as “More than 95%”. The “inhibition rate by average tumor weight” value in data set [2] (day 28) turned out to be 58.0%; in data set [3] (day 28) it was 61.9%. Moreover, in data set [3] (day 16), the “inhibition in tumor volume” value was 82%. The “average reduction in mouse body weight” value in data set [4] (60 mg/kg) is 12%. Besides, the “toxic effect on mouse behavior or body weight” value in data set [4] (doses up to 40 mg/kg) is “no toxic effect on mouse behavior or body weight”. Moreover, in data set [4] (single dose 60 mg/kg, Balb/c mice), the distress entry is “Moderate distress”. Moreover, in data set [4] (single dose 60 mg/kg, day 24), the “body weight difference compared to control mice” value is listed as 19%. Further, the “reduction of body weight” value in data set [4] (single dose 60 mg/kg, within the first four days) is listed as “about 6%”.
